Measured values as given in patent US20150147316A1 (Seagen, published 2015).

Experiments:
human CD33 [1] = molecular target: T1, human CD33 (human, UniProt P20138 18-364); test: flow cytometry on HEL 92.1.7 cells; competition with 1 nM AlexaFluor-647 m2H12 (methods paragraph 148)
T1 construct: Endogenous on HL-60 and HEL 92.1.7 AML cells, or recombinant on transfected HEK293F cells; The signal peptide is stated as amino acids 1-17; also called hCD33
Procedure: (§1) Cells were centrifuged, washed 3 times with PBS, and resuspended in 125 μL of a PBS+1% BSA solution. Fluorescence was analyzed using a flow cytometer, and the percent of saturated fluorescent signal was used to determine percent labeled 2H12 mAb bound. The EC50 was extrapolated by fitting the data to a sigmoidal dose-response curve with variable slope.
(§2) Humanized heavy and light chains were paired with chimeric light and heavy chains (chimeric chains composed of murine variable regions and human constant regions) respectively. The humanized/chimeric hybrid variants of CD33 mAb were tested for binding to human CD33 expressed on the surface of HEL 92.1.7 AML cells (Table 5). Heavy chains HC and HI were selected for further study. Humanized antibodies were expressed representing permutations of humanized heavy chains HC and HI and humanized light chains LA, LE and LG and binding to cells expressing human or cynomolgus (cyno) CD33 was determined (Table 6). The HILG antibody (2H12 HILG) was selected as the humanized antibody that most closely resembled the binding characteristics of the murine CD33 mAb m2H12. The HILG antibody is referred to as the h2H12 antibody ([…] 2H12 antibody). The KD for m2H12, h2H12, and h2H12 with an S239C mutation (EU numbering) in the IgG1 heavy chain (referred to as h2H12EC, for engineered cysteine), was determined for human CD33 expressed as an endogenous protein in two AML cell lines or as a recombinant protein in a HEK293F cell line. The KD for these antibodies was also determined for cyno CD33 expressed as a recombinant protein in a HEK293F cell line (Table 7).

human CD33 [2] = molecular target: T1, human CD33; test: flow cytometry on HEL 92.1.7 AML cells; competition with 1 nM AlexaFluor-647 m2H12 (methods paragraph 148)
Procedure: as §1, §2

cynomolgus CD33 = molecular target: T2, cynomolgus CD33 (cynomolgus); test: flow cytometry on HEK293F cells expressing cyno CD33; competition with 1 nM AlexaFluor-647 m2H12 (methods paragraph 148)
T2 construct: Recombinant on transfected HEK293F cells; also called cyno CD33; cynoCD33
T2 sequence (chain, as listed by the source limits assumed): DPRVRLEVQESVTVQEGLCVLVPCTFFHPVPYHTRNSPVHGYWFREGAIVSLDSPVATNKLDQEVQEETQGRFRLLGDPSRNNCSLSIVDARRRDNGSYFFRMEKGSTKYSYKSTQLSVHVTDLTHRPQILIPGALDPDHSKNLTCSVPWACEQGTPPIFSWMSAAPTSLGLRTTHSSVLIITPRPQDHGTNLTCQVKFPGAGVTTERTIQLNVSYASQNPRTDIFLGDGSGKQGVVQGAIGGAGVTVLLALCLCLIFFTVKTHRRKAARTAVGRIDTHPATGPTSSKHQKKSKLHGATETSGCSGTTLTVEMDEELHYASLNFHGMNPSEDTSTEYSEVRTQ
Procedure: as §1, §2

human CD33 [3] = molecular target: T1, human CD33; test: flow cytometry on HEK293F cells expressing human CD33; competition with 1 nM AlexaFluor-647 m2H12 (methods paragraph 148)
Procedure: as §1, §2

T1 sequence (P20138 18-364): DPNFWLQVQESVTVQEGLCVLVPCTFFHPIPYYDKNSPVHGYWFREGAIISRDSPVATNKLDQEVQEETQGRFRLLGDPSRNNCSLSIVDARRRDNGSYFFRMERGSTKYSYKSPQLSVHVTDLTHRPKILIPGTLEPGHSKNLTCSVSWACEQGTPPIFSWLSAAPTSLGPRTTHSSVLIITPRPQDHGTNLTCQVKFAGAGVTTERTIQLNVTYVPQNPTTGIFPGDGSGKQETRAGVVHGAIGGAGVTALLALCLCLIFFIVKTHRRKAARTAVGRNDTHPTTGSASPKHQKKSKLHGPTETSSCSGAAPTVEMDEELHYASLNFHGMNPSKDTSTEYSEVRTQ

Row | Binder | EC50 (human CD33 [1]) | EC50 (human CD33 [2]) | EC50 (cynomolgus CD33) | EC50 (human CD33 [3])
1 | cHLA (antibody, V domains shown, Hybrid of the chimeric heavy chain (murine VH, human constant region) and humanized light chain LA) VH: QVQLQQSGPELVRPGTFVKISCKASGYTFTNYDINWVNQRPGQGLEWIGWIYPGDGSTKYNEKFKAKATLTADKSSSTAYLQLNNLTSENSAVYFCASGYEDAMDYWGQGTSVTVSS VL: DIQMTQSPSSLSASVGDRVTITCKASQDINSYLSWFQQKPGKAPKSLIYRANRLVDGVPSRFSGSGSGTDFTLTISSLQPEDFATYYCLQYDEFPLTFGGGTKVEIK |  | 2.61 nM |  | 
2 | HCcL (antibody, V domains shown, Hybrid of humanized heavy chain HC and the chimeric light chain (murine VL, human constant region)) VH: QVQLVQSGAEVKKPGASVKVSCKASGYTFTNYDINWVRQAPGQGLEWMGWIYPGDGSTKYNEKFKARVTMTTDTSTSTAYMELRSLRSDDTAVYYCASGYEDAMDYWGQGTTVTVSS VL: DIKMTQSPSSMYASLGERVIINCKASQDINSYLSWFQQKPGKSPKTLIYRANRLVDGVPSRFSGSGSGQDYSLTISSLEYEDMGIYYCLQYDEFPLTFGAGTKLELK |  | 2.95 nM |  | 
3 | HILE (antibody, V domains shown, Humanized antibody, heavy chain HI with light chain LE) VH: QVQLVQSGAEVKKPGASVKVSCKASGYTFTNYDINWVRQAPGQGLEWIGWIYPGDGSTKYNEKFKAKATLTADTSTSTAYMELRSLRSDDTAVYYCASGYEDAMDYWGQGTTVTVSS VL: DIQMTQSPSSLSASVGDRVTITCKASQDINSYLSWFQQKPGKAPKSLIYRANRLVDGVPSRFSGSGSGTDYTLTISSLQPEDFATYYCLQYDEFPLTFGGGTKVEIK | 11.1 nM |  | 64.8 nM | 19.3 nM
4 | HCLG (antibody, V domains shown, Humanized antibody, heavy chain HC with light chain LG) VH: QVQLVQSGAEVKKPGASVKVSCKASGYTFTNYDINWVRQAPGQGLEWMGWIYPGDGSTKYNEKFKARVTMTTDTSTSTAYMELRSLRSDDTAVYYCASGYEDAMDYWGQGTTVTVSS VL: DIQMTQSPSSLSASVGDRVTINCKASQDINSYLSWFQQKPGKAPKTLIYRANRLVDGVPSRFSGSGSGQDYTLTISSLQPEDFATYYCLQYDEFPLTFGGGTKVEIK | 7.9 nM |  | 63 nM | 17.9 nM
5 | HILA (antibody, V domains shown, Humanized antibody, heavy chain HI with light chain LA) VH: QVQLVQSGAEVKKPGASVKVSCKASGYTFTNYDINWVRQAPGQGLEWIGWIYPGDGSTKYNEKFKAKATLTADTSTSTAYMELRSLRSDDTAVYYCASGYEDAMDYWGQGTTVTVSS VL: DIQMTQSPSSLSASVGDRVTITCKASQDINSYLSWFQQKPGKAPKSLIYRANRLVDGVPSRFSGSGSGTDFTLTISSLQPEDFATYYCLQYDEFPLTFGGGTKVEIK | 12.2 nM |  | 126 nM | 26.8 nM
6 | h2H12 antibody (2H12 HILG) (antibody, V domains shown, also called humanized 2H12; human 2H12 antibody) VH: QVQLVQSGAEVKKPGASVKVSCKASGYTFTNYDINWVRQAPGQGLEWIGWIYPGDGSTKYNEKFKAKATLTADTSTSTAYMELRSLRSDDTAVYYCASGYEDAMDYWGQGTTVTVSS VL: DIQMTQSPSSLSASVGDRVTINCKASQDINSYLSWFQQKPGKAPKTLIYRANRLVDGVPSRFSGSGSGQDYTLTISSLQPEDFATYYCLQYDEFPLTFGGGTKVEIK | 7.8 nM | 3.39 nM | 39.9 nM | 14.4 nM
7 | HCLE (antibody, V domains shown, Humanized antibody, heavy chain HC with light chain LE) VH: QVQLVQSGAEVKKPGASVKVSCKASGYTFTNYDINWVRQAPGQGLEWMGWIYPGDGSTKYNEKFKARVTMTTDTSTSTAYMELRSLRSDDTAVYYCASGYEDAMDYWGQGTTVTVSS VL: DIQMTQSPSSLSASVGDRVTITCKASQDINSYLSWFQQKPGKAPKSLIYRANRLVDGVPSRFSGSGSGTDYTLTISSLQPEDFATYYCLQYDEFPLTFGGGTKVEIK | 12.8 nM |  | 129 nM | 22.2 nM
8 | HCLA (antibody, V domains shown, Humanized antibody, heavy chain HC with light chain LA) VH: QVQLVQSGAEVKKPGASVKVSCKASGYTFTNYDINWVRQAPGQGLEWMGWIYPGDGSTKYNEKFKARVTMTTDTSTSTAYMELRSLRSDDTAVYYCASGYEDAMDYWGQGTTVTVSS VL: DIQMTQSPSSLSASVGDRVTITCKASQDINSYLSWFQQKPGKAPKSLIYRANRLVDGVPSRFSGSGSGTDFTLTISSLQPEDFATYYCLQYDEFPLTFGGGTKVEIK | 13.6 nM |  | 141 nM | 31.7 nM

Now from value to binder:

Row | EC50 (human CD33 [1]) | EC50 (human CD33 [2]) | EC50 (cynomolgus CD33) | EC50 (human CD33 [3]) | Binder
9 | 5.4 nM | 2.38 nM | 30.6 nM | 11.6 nM | murine mAb 2H12 (antibody, V domains shown, Murine monoclonal antibody from Balb/c mice; also called m2H12; murine 2H12 antibody) VH: QVQLQQSGPELVRPGTFVKISCKASGYTFTNYDINWVNQRPGQGLEWIGWIYPGDGSTKYNEKFKAKATLTADKSSSTAYLQLNNLTSENSAVYFCASGYEDAMDYWGQGTSVTVSS VL: DIKMTQSPSSMYASLGERVIINCKASQDINSYLSWFQQKPGKSPKTLIYRANRLVDGVPSRFSGSGSGQDYSLTISSLEYEDMGIYYCLQYDEFPLTFGAGTKLELK
10 |  | 1.97 nM |  |  | c2H12 (antibody, V domains shown, also called chimeric 2H12) VH: QVQLQQSGPELVRPGTFVKISCKASGYTFTNYDINWVNQRPGQGLEWIGWIYPGDGSTKYNEKFKAKATLTADKSSSTAYLQLNNLTSENSAVYFCASGYEDAMDYWGQGTSVTVSS VL: DIKMTQSPSSMYASLGERVIINCKASQDINSYLSWFQQKPGKSPKTLIYRANRLVDGVPSRFSGSGSGQDYSLTISSLEYEDMGIYYCLQYDEFPLTFGAGTKLELK
11 |  | 1.95 nM |  |  | cHLE (antibody, V domains shown, Hybrid of the chimeric heavy chain (murine VH, human constant region) and humanized light chain LE) VH: QVQLQQSGPELVRPGTFVKISCKASGYTFTNYDINWVNQRPGQGLEWIGWIYPGDGSTKYNEKFKAKATLTADKSSSTAYLQLNNLTSENSAVYFCASGYEDAMDYWGQGTSVTVSS VL: DIQMTQSPSSLSASVGDRVTITCKASQDINSYLSWFQQKPGKAPKSLIYRANRLVDGVPSRFSGSGSGTDYTLTISSLQPEDFATYYCLQYDEFPLTFGGGTKVEIK
12 |  | 2.02 nM |  |  | cHLF (antibody, V domains shown, Hybrid of the chimeric heavy chain (murine VH, human constant region) and humanized light chain LF) VH: QVQLQQSGPELVRPGTFVKISCKASGYTFTNYDINWVNQRPGQGLEWIGWIYPGDGSTKYNEKFKAKATLTADKSSSTAYLQLNNLTSENSAVYFCASGYEDAMDYWGQGTSVTVSS VL: DIQMTQSPSSLSASVGDRVIINCKASQDINSYLSWFQQKPGKAPKSLIYRANRLVDGVPSRFSGSGSGTDFTLTISSLQPEDFATYYCLQYDEFPLTFGGGTKVEIK
13 |  | 1.91 nM |  |  | cHLG (antibody, V domains shown, Hybrid of the chimeric heavy chain (murine VH, human constant region) and humanized light chain LG) VH: QVQLQQSGPELVRPGTFVKISCKASGYTFTNYDINWVNQRPGQGLEWIGWIYPGDGSTKYNEKFKAKATLTADKSSSTAYLQLNNLTSENSAVYFCASGYEDAMDYWGQGTSVTVSS VL: DIQMTQSPSSLSASVGDRVTINCKASQDINSYLSWFQQKPGKAPKTLIYRANRLVDGVPSRFSGSGSGQDYTLTISSLQPEDFATYYCLQYDEFPLTFGGGTKVEIK
14 |  | 2.48 nM |  |  | cHLD (antibody, V domains shown, Hybrid of the chimeric heavy chain (murine VH, human constant region) and humanized light chain LD) VH: QVQLQQSGPELVRPGTFVKISCKASGYTFTNYDINWVNQRPGQGLEWIGWIYPGDGSTKYNEKFKAKATLTADKSSSTAYLQLNNLTSENSAVYFCASGYEDAMDYWGQGTSVTVSS VL: DIQMTQSPSSLSASVGDRVTITCKASQDINSYLSWFQQKPGKAPKSLIYRANRLVDGVPSRFSGSGSGQDFTLTISSLQPEDFATYYCLQYDEFPLTFGGGTKVEIK
15 |  | 2.49 nM |  |  | cHLC (antibody, V domains shown, Hybrid of the chimeric heavy chain (murine VH, human constant region) and humanized light chain LC) VH: QVQLQQSGPELVRPGTFVKISCKASGYTFTNYDINWVNQRPGQGLEWIGWIYPGDGSTKYNEKFKAKATLTADKSSSTAYLQLNNLTSENSAVYFCASGYEDAMDYWGQGTSVTVSS VL: DIQMTQSPSSLSASVGDRVTITCKASQDINSYLSWFQQKPGKAPKTLIYRANRLVDGVPSRFSGSGSGTDFTLTISSLQPEDFATYYCLQYDEFPLTFGGGTKVEIK
16 |  | 2.53 nM |  |  | cHLB (antibody, V domains shown, Hybrid of the chimeric heavy chain (murine VH, human constant region) and humanized light chain LB) VH: QVQLQQSGPELVRPGTFVKISCKASGYTFTNYDINWVNQRPGQGLEWIGWIYPGDGSTKYNEKFKAKATLTADKSSSTAYLQLNNLTSENSAVYFCASGYEDAMDYWGQGTSVTVSS VL: DIKMTQSPSSLSASVGDRVTITCKASQDINSYLSWFQQKPGKAPKSLIYRANRLVDGVPSRFSGSGSGTDFTLTISSLQPEDFATYYCLQYDEFPLTFGGGTKVEIK
17 |  | 2.56 nM |  |  | HIcL (antibody, V domains shown, Hybrid of humanized heavy chain HI and the chimeric light chain (murine VL, human constant region)) VH: QVQLVQSGAEVKKPGASVKVSCKASGYTFTNYDINWVRQAPGQGLEWIGWIYPGDGSTKYNEKFKAKATLTADTSTSTAYMELRSLRSDDTAVYYCASGYEDAMDYWGQGTTVTVSS VL: DIKMTQSPSSMYASLGERVIINCKASQDINSYLSWFQQKPGKSPKTLIYRANRLVDGVPSRFSGSGSGQDYSLTISSLEYEDMGIYYCLQYDEFPLTFGAGTKLELK
